± gives the standard error. Variants at the floor of the assay were thinned out.
B1: glmS ribozyme (parent)
chain: AUAAAAGCGCCAGAACUACAGAAAUGUAGUUGACGAGGAGGAGGUUUAUCGAAUUUUCGGCGGAUGCCUCCAAA

What was measured:
Conditions in all cases: with glucosamine-6-phosphate
glucosamine-6-phosphate [1] = variants of: B1; test: self-cleavage kobs at 40 uM GlcN6P; higher = faster cleavage; RNA array
Method in brief: (§1)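 Using a hybridised Cy3 probe at 37 °C, barcoded ribozyme variants transcribed in situ by E. coli RNA polymerase on sequenced MiSeq chips were monitored across tiles imaged over ~14 h. The flow contained glucosamine-6-phosphate from 40 μM to 10 mM in HEPES/KCl/Mg(OAc)2 buffer. Signals were normalised to baseline and to non-cleaving reference variants before per-tile medians were fit to one- or two-exponential decays to yield kobs. Weighted Michaelis–Menten fits across concentrations gave kcat and KM.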

glucosamine-6-phosphate [2] = variants of: B1; test: self-cleavage kobs at 640 uM GlcN6P; higher = faster cleavage; RNA array
Method in brief: as §1

glucosamine-6-phosphate [3] = variants of: B1; test: self-cleavage kobs at 2500 uM GlcN6P; higher = faster cleavage; RNA array
Method in brief: as §1

glucosamine-6-phosphate [4] = variants of: B1; test: self-cleavage kobs at 160 uM GlcN6P; higher = faster cleavage; RNA array
Method in brief: as §1

glucosamine-6-phosphate [5] = variants of: B1; test: self-cleavage kobs at 10000 uM GlcN6P; higher = faster cleavage; RNA array
Method in brief: as §1

Variant	self-cleavage kobs at 40 uM GlcN6P (glucosamine-6-phosphate [1]) [s⁻¹]	self-cleavage kobs at 640 uM GlcN6P (glucosamine-6-phosphate [2]) [s⁻¹]	self-cleavage kobs at 2500 uM GlcN6P (glucosamine-6-phosphate [3]) [s⁻¹]	self-cleavage kobs at 160 uM GlcN6P (glucosamine-6-phosphate [4]) [s⁻¹]	self-cleavage kobs at 10000 uM GlcN6P (glucosamine-6-phosphate [5]) [s⁻¹]
G13C G63A	< 1e-05	< 1e-05	< 1e-05	–	–
G37A U56A	1.92e-05 ± 6.8e-06	–	–	4.84e-05 ± 1.8e-05	0.000962 ± 0.00011
A6U G38A G40U G51C	< 1e-05	–	–	–	–
G40U G51U G62A C68U	< 1e-05	–	–	–	< 1e-05
G60C C71G	< 1e-05	–	–	< 1e-05	< 1e-05
G32U C34G C68G	4.91e-05 ± 1.8e-05	–	–	–	3.41e-05 ± 1.6e-05
C10G C50G C58A C61A	9.48e-05 ± 2.9e-05	–	–	–	5.26e-05 ± 2e-05
A12U A52C C58U C71U	< 1e-05	–	–	–	–
C10U G40A C67A	< 1e-05	–	–	–	< 1e-05
U47G C71U	0.000224 ± 2.2e-05	0.001 ± 0.00012	0.00216 ± 0.00038	0.000648 ± 8.2e-05	0.00702 ± 0.00088
A15G G29A G63U	< 1e-05	–	–	–	< 1e-05
C16G G62U C67G	< 1e-05	–	–	–	–
C11U G29C C34A G37U	< 1e-05	< 1e-05	–	–	–
A15U C34A A52U	< 1e-05	–	–	–	< 1e-05
G7U A48U	< 1e-05	< 1e-05	< 1e-05	< 1e-05	< 1e-05
C58A G59U C68U	< 1e-05	–	–	–	–
G7A G13U A14C A15U G35A U55C A64G C71A	< 1e-05	–	–	–	< 1e-05
C10G C34U	< 1e-05	< 1e-05	< 1e-05	< 1e-05	< 1e-05
G60C U65G	< 1e-05	< 1e-05	–	< 1e-05	< 1e-05
A12U U49C	< 1e-05	–	< 1e-05	–	–
C8G C11G U30C C34G G44U G62A	< 1e-05	–	–	–	< 1e-05
A15U C34G	< 1e-05	< 1e-05	–	< 1e-05	< 1e-05
A6G G62U	< 1e-05	< 1e-05	< 1e-05	< 1e-05	< 1e-05
A42G U45A U49C	< 1e-05	–	–	–	–
G9A G62U	< 1e-05	–	< 1e-05	< 1e-05	–

Variant	self-cleavage kobs at 40 uM GlcN6P (glucosamine-6-phosphate [1]) [s⁻¹]	self-cleavage kobs at 640 uM GlcN6P (glucosamine-6-phosphate [2]) [s⁻¹]	self-cleavage kobs at 2500 uM GlcN6P (glucosamine-6-phosphate [3]) [s⁻¹]	self-cleavage kobs at 160 uM GlcN6P (glucosamine-6-phosphate [4]) [s⁻¹]	self-cleavage kobs at 10000 uM GlcN6P (glucosamine-6-phosphate [5]) [s⁻¹]
G35C A42U	< 1e-05	< 1e-05	< 1e-05	< 1e-05	–
G7U U56A	< 1e-05	< 1e-05	–	< 1e-05	< 1e-05
C10U G38A G66U	< 1e-05	–	–	–	–
A15U G51U C71A	< 1e-05	–	–	–	< 1e-05
G32U C58G G60U	< 1e-05	–	–	–	–
C34A G43C	< 1e-05	< 1e-05	–	< 1e-05	< 1e-05
G32C G44U U56A	< 1e-05	< 1e-05	–	–	< 1e-05
G60U G62U	< 1e-05	< 1e-05	< 1e-05	< 1e-05	< 1e-05
A6G A15U G59A	< 1e-05	–	< 1e-05	–	< 1e-05
G7A G32A C58A	< 1e-05	–	–	–	< 1e-05
A12U G13U G43A	< 1e-05	–	–	–	< 1e-05
G7A G32C	< 1e-05	< 1e-05	< 1e-05	< 1e-05	< 1e-05
G35U A48G	< 1e-05	< 1e-05	–	< 1e-05	< 1e-05
A14G G62U	< 1e-05	–	< 1e-05	–	< 1e-05
G35U G37A	< 1e-05	< 1e-05	< 1e-05	–	–
C68A U69C	< 1e-05	–	–	–	4.51e-05 ± 1.6e-05
G51A A52C A53G	< 1e-05	–	–	–	–
G29C C58U C71U	< 1e-05	–	–	–	5.59e-05 ± 1.7e-05
G9U G51A	< 1e-05	< 1e-05	–	< 1e-05	< 1e-05
G9C C67G	< 1e-05	< 1e-05	< 1e-05	< 1e-05	< 1e-05
G7A G13A	< 1e-05	< 1e-05	–	< 1e-05	< 1e-05
G37C A48U U57G	< 1e-05	< 1e-05	< 1e-05	–	–
C8A C67U	< 1e-05	< 1e-05	–	< 1e-05	< 1e-05
G44C U46A G51A	< 1e-05	–	–	–	–
A6U A14U G35C A39U U55A C58A	< 1e-05	–	< 1e-05	–	< 1e-05

Variant	self-cleavage kobs at 40 uM GlcN6P (glucosamine-6-phosphate [1]) [s⁻¹]	self-cleavage kobs at 640 uM GlcN6P (glucosamine-6-phosphate [2]) [s⁻¹]	self-cleavage kobs at 2500 uM GlcN6P (glucosamine-6-phosphate [3]) [s⁻¹]	self-cleavage kobs at 160 uM GlcN6P (glucosamine-6-phosphate [4]) [s⁻¹]	self-cleavage kobs at 10000 uM GlcN6P (glucosamine-6-phosphate [5]) [s⁻¹]
A52C U56C	< 1e-05	–	< 1e-05	–	–
G9A G32C A52U	< 1e-05	–	–	–	< 1e-05
C34U U65C	< 1e-05	< 1e-05	< 1e-05	< 1e-05	< 1e-05
A12U G41A G44C U55G	< 1e-05	–	–	–	< 1e-05
A33U C34U G60C C68U	< 1e-05	–	< 1e-05	–	–
C8G G9C C16A G38A G40U U49G U57C	< 1e-05	–	–	–	< 1e-05
G13U U56A G59U	< 1e-05	–	–	–	–
A33U C61U C70G	< 1e-05	–	–	–	–
G7U U49A A52C G60C C61U	< 1e-05	< 1e-05	< 1e-05	–	< 1e-05
G13A A42G A48U	< 1e-05	–	–	–	< 1e-05
A6C C16A	< 1e-05	< 1e-05	< 1e-05	< 1e-05	–
A48U C67U C70U	< 1e-05	–	< 1e-05	–	–
G7C	< 1e-05	< 1e-05	< 1e-05	< 1e-05	< 1e-05
G9U C16U G43U A53U	< 1e-05	–	–	–	< 1e-05
G13U G44U G51C	< 1e-05	–	–	–	–
U56C C68U	< 1e-05	< 1e-05	–	–	–
U49A C50G U57A C67A C71A	0.000473 ± 0.00018	0.000357 ± 0.00011	7.6e-05 ± 3.3e-05	0.000223 ± 6.6e-05	–
G7C A48U C70G	< 1e-05	–	–	–	< 1e-05
A15U A52U C70A	< 1e-05	–	–	–	–
U31C G51U	< 1e-05	–	–	–	< 1e-05
U55C G63U	< 1e-05	–	–	–	–
C10A G32A U47A	< 1e-05	–	–	–	–
U56A C68U	0.000143 ± 2.2e-05	0.000955 ± 0.00014	0.00101 ± 0.00018	0.000404 ± 8.3e-05	0.00472 ± 0.00088
A6C G29U C34U U47G C58G C70G	0.000135 ± 5e-05	0.000686 ± 0.0002	–	–	0.000144 ± 3.9e-05
A18G	0.00161 ± 0.00045	–	–	–	0.0231 ± 0.01

Variant	self-cleavage kobs at 40 uM GlcN6P (glucosamine-6-phosphate [1]) [s⁻¹]	self-cleavage kobs at 640 uM GlcN6P (glucosamine-6-phosphate [2]) [s⁻¹]	self-cleavage kobs at 2500 uM GlcN6P (glucosamine-6-phosphate [3]) [s⁻¹]	self-cleavage kobs at 160 uM GlcN6P (glucosamine-6-phosphate [4]) [s⁻¹]	self-cleavage kobs at 10000 uM GlcN6P (glucosamine-6-phosphate [5]) [s⁻¹]
G13C C16U G63A	< 1e-05	–	–	–	–
C10G U30A A42U G51A	< 1e-05	–	–	–	–
G7A G9U C16A G37U U65C	< 1e-05	–	–	–	–
A14G G38A	< 1e-05	–	–	–	–
A6C C11U A33C A36G U47G G59A	< 1e-05	< 1e-05	–	–	–
G35U G51A U54G	< 1e-05	–	–	–	< 1e-05
G9C G13U G41U G63U	< 1e-05	–	–	–	< 1e-05
C8A U31G	< 1e-05	< 1e-05	< 1e-05	< 1e-05	< 1e-05
G9U A15C U47C	< 1e-05	–	–	–	–
A14G U54C U69C	0.000416 ± 9.9e-05	0.0011 ± 0.00044	0.000161 ± 5.8e-05	–	0.0047 ± 0.0013
G9C A33U A52C	< 1e-05	–	–	–	–
G35A G51A	< 1e-05	–	–	–	< 1e-05
G40U U56G G62C C67G	< 1e-05	–	–	–	–
C16U G35A	< 1e-05	< 1e-05	–	< 1e-05	–
C10G G43U U47G C61A	< 1e-05	< 1e-05	< 1e-05	–	–
A33U A64C	< 1e-05	< 1e-05	–	< 1e-05	< 1e-05
G51A G62C C67A	< 1e-05	–	–	–	< 1e-05
A53C U57C	< 1e-05	–	4.1e-05 ± 1.6e-05	–	4.63e-05 ± 1.2e-05
A12G G37C U46C A53G C68U	< 1e-05	–	–	–	< 1e-05
G7A G32A U45A A52G U65G	< 1e-05	–	–	–	–
U54A U69C	0.000835 ± 0.00028	0.000282 ± 6e-05	0.000214 ± 6.2e-05	0.000323 ± 8.9e-05	0.000426 ± 0.00011
A39C C68G	< 1e-05	–	–	–	< 1e-05
A14G C70G	9.61e-05 ± 1.2e-05	0.000614 ± 0.00013	0.0009 ± 0.00022	0.000203 ± 1.9e-05	–
A48U U49A	< 1e-05	< 1e-05	–	< 1e-05	–

— the supplement of paper PMC7125110
